One series addresses Dnmt3a-CD (mouse (murine), UniProt O88508 630-908). Description: fluorescence polarization; 100 uM AdoHcy; 20 mM HEPES-NaOH pH 7.5, 100 mM KCl, 1 mM EDTA, 1 mM DTT, 100 uM AdoHcy, 10 nM DNA (60 nM for PWWP); FP temperature not stated; methylation competition at 37 C. The following applies: protein: recombinant, tags: N-terminal 6xHis, chain copies: 4.
The next series has as its target M.SssI (UniProt P15840 1-386). The description is as above. Conditions: protein: recombinant; label: 5'-FAM; intramolecular parallel G4.
Another series addresses Dnmt3a PWWP domain (UniProt O88508 288-346). Description: fluorescence polarization; 100 uM AdoHcy; 60 nM DNA; 20 mM HEPES-NaOH pH 7.5, 100 mM KCl, 1 mM EDTA, 1 mM DTT, 100 uM AdoHcy, 10 nM DNA (60 nM for PWWP); FP temperature not stated; methylation competition at 37 C. The following applies: protein: recombinant; label: 5'-FAM; intramolecular parallel G4.

We go through two molecules from PMC10779317, “Crosstalk between G-Quadruplexes and Dnmt3a-Mediated Methylation of the c-MYC Oncogene Promoter”.

Chain of M.SssI (P15840 whole entry, the tested form may be a part): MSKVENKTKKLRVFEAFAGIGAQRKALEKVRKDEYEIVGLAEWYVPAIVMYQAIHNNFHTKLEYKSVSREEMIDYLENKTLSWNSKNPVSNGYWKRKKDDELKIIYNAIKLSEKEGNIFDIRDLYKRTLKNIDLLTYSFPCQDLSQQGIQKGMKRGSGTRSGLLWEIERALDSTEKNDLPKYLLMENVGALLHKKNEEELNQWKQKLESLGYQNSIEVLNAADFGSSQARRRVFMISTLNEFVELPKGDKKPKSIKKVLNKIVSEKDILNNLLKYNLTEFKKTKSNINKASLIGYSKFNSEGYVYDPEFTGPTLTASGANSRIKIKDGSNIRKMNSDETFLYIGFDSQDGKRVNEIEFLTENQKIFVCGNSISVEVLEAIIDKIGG

B1: 27fG4 (structured_DNA)
DNA: TGGGGAGGGTGGGGAGGGTGGGGAAGG
As usually defined, the Kd is the constant that tells how readily two partners part at equilibrium. Consider B1, for which the Kd with Dnmt3a-CD (label: 5'-FAM, intramolecular parallel G4) stood at 0.12 ± 0.03 µM; with M.SssI, 1.2 ± 0.6 µM; in the series with Dnmt3a PWWP domain, 0.9 ± 0.2 µM.

B2: 30Uf/30Df (dsDNA)
DNA 1: CTGAATACTACTTGCGCTCTCTAACCTGAT
DNA 2: ATCAGGTTAGAGAGCGCAAGTAGTATTCAG
In the case of B2, the Kd in the series with Dnmt3a-CD (label: 5'-FAM on both strands, blunt) was 0.22 ± 0.03 µM.
